The source of these data is article PMC10344970.

Common to all, as to experiment: purified protein
The subject of one data set is Oc1ccc2cccc(O)c2c1. The note with it: co-substrate 1 mM DMAPP, 50 mM Tris-HCl, 10 mM CaCl2, 5% DMSO, 37 °C, 15 min.
The subject of a further data set is Oc1ccc2c(O)cccc2c1. The note with it: co-substrate 1 mM DMAPP, 50 mM Tris-HCl, 10 mM CaCl2, 5% DMSO, 37 °C, 15 min.
The test system of data set [1] is CC(C)=CCC/C(C)=C/COP(=O)(O)OP(=O)(O)O. The note with it: co-substrate 1-hydroxynaphthalene (1), 50 mM Tris-HCl, 10 mM CaCl2, 5% DMSO, 37 °C, 15 min, substrate inhibition at 1.0 mM or higher.

With ShPT (Stereum hirsutum FP-91666 SS1), in the data set with Oc1ccc2cccc(O)c2c1, the Michaelis-Menten constant (Km) was 920 ± 10 µM, the kcat was found to be 0.46 ± 0.04 s⁻¹ and the specificity constant (kcat/Km) is 511 M⁻¹ s⁻¹. Moreover, in the data set on Oc1ccc2c(O)cccc2c1, the Michaelis-Menten constant (Km) was 660 ± 100 µM, the turnover number (kcat) was 0.13 ± 0.01 s⁻¹ and the catalytic efficiency (kcat/Km) came to 197 M⁻¹ s⁻¹. Moreover, in data set [1], the Michaelis-Menten constant (Km) stood at 1010 ± 50 µM, the kcat came to 0.36 ± 0.01 s⁻¹ and the kcat/Km was 357 M⁻¹ s⁻¹.
